Data published in patent publication US8268779B2, “Pharmaceutical composition comprising oxyntomodulin derivatives and a method for reducing body weight using the composition” (Merck Sharp & Dohme Corp., priority 2006, dated 2012).
Non-standard residues stand in square brackets, D forms with d. Residues, ends and D or L forms follow the SMILES beside them. No end group written: not given here. *: point of attachment. C3 = cysteine residue PEGylated via the side-chain thiol with branched methoxyPEG [(mPEG)2] of 40 kDa (Cys(mPEG)2 40 kDa); (mPEG)2 40 kDa = C3 = Cys(mPEG)2 40 kDa, cysteine PEGylated via side-chain thiol with branched mPEG of 40 kDa; Desaminohistidyl = O=C(CCc1c[nH]cn1)*; Met(O) = CS(=O)CC[C@H](N)C(=O)O; Aib = CC(C)(N)C(=O)O

What was measured:
hGLP-1R [1] = target: T1, hGLP-1R (Homo sapiens, UniProt P43220); test: EC50 (hGLP-1R), nM | "-DPP-IV"
Experimental: (§1) Table printed on a drawing sheet, FIG.17
Head of the field: EC50 (hGLP-1R), nM | "-DPP-IV"
(§2) First copying reader's note: The "+DPP-IV" column is the hGLP-1R EC50 measured after incubation with DPP-IV, so stability is shown as a potency shift against the "-DPP-IV" column.
(§3) Where the first naming reader finds the target: head: EC50 (hGLP-1R), nM

hGLP-1R [2] = target: T1, hGLP-1R; test: EC50 (hGLP-1R), nM | "+DPP-IV"
Experimental: as §1, §2, §3

[3] = test system: islets from wild type C57BL/6 mice; test: Glucose-stimulated insulin secretion (GSIS) in wild type murine islets; assay type: cell-based, mouse
Experimental: (§4) To measure GSIS, islets were first preincubated for 30 minutes in the Krebs-Ringer bicarbonate (KRB) buffer with 2 mM glucose (in Petri dishes). […] Insulin was measured in aliquots of the incubation buffer by ELISA with a commercial kit (ALPCO Diagnostics, Windham, N.H.).

[4] = test system: islets from GLP-1R−/− mice; test: GSIS in GLP-1R-/- islets; assay type: cell-based, mouse; conditions: 10 nM peptide, 16 mmol/l glucose
Experimental: as §4

[5] = test system: islets from GCG-R−/− mice; test: GSIS in GCG-R-/- islets; conditions: 10 nM peptide
Experimental: as §4

Male C57BL/6N mice = test: Acute effects on food intake and body weight in lean mice; assay type: in vivo, mouse; conditions: for overnight body weight gain in mice fed ad libitum: equimolar/similar doses; for overnight food intake and body weight gain in lean mice: FIG. 3
Experimental: Absolute changes in food intake were calculated for each animal by subtracting the amount of food remaining in the food hopper at the specified time points from that of the corresponding original pre-weighed aliquot. Absolute changes in body weight were calculated for each animal by subtracting the body weight of the animal prior to dosing from that of the corresponding animal at the specified time points. All values were reported as mean±SEM and peptide treatment groups were analyzed by the two-tailed unpaired Student's t test with reference to vehicle-treated animals. […] (FIG. 3)

[6] = test system: mutant form of the human GLP-1R; test: GLP-1R cAMP HTRF assay in transfected CHO cells; assay type: cell-based
[7] = target: T2, recombinant soluble human DP-IV (Homo sapiens, UniProt P27487); test: Resistance to DP-IV cleavage (preincubation with DP-IV, then hGLP-1R cAMP HTRF assay); assay type: in vitro ADME; conditions: FIG. 1
T2 construct: recombinant soluble human DP-IV
T2 sequence (P27487 39-766 limits assumed): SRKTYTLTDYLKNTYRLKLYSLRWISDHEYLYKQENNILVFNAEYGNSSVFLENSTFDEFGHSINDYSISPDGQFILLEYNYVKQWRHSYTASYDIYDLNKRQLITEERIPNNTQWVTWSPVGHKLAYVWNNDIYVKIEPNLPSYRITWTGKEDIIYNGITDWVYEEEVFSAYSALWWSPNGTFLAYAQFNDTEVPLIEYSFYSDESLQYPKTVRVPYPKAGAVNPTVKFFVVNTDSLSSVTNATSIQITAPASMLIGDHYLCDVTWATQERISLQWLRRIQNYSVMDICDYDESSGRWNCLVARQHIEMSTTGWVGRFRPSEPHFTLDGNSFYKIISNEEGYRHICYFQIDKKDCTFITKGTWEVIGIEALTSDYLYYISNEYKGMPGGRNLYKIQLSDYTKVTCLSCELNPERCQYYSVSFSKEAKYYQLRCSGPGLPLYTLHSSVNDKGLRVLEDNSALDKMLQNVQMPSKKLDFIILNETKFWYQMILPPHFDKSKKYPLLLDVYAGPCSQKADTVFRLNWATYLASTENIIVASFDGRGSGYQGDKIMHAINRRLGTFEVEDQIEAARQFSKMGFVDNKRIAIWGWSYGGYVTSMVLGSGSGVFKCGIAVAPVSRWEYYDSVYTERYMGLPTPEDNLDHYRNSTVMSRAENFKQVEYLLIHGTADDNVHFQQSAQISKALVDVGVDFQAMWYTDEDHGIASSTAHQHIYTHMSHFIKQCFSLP
Experimental: Activation of hGLP-1R was subsequently measured using the Cis Bio HTRF cAMP assay and compared to control peptides pre-incubated at 37° C. for 2 hours in the absence of DP-IV.

[8] = Hydrolysis sites on incubation in PBS containing 10% mouse or human plasma; assay type: in vitro ADME; conditions: 37° C.
Experimental: A detailed study was undertaken in which OXM139 was incubated in PBS containing 10% of mouse or human plasma at 37° C. Sample preparation was accomplished by mixing 1 μL of test solution and 1 μL of matrix (α-cyano) directly on the sample plate. After crystallization Tof spectrum was collected: Time points at 30, 60, 120 and 720 minutes were analyzed and compared with the same time points of the control test solutions. […] Specifically, Arg 17 was mutated to Glu and Arg 18 was mutated to Ala. The peptide OXM153 is the N-ethyl maleimide analog of OXM151. The peptide OXM154 is the conjugate obtained using a (mPEG)240 kDa from NOF Corporation (SUNBRIGHT GL2-400MA Maleimide).
A similar study of stability was performed on a GcgK series analog OXM144 to determine the primary sites of hydrolysis by incubation with PBS, containing 10% of either mouse or human plasma. […] For this reason, it was decided to introduce mutations at the sites 17 and 18 also in the GcgK analog series.

glucagon-like activity = test: Glucagon-like activity in vitro (FIG. 13)
WT mice = test: IPGTT with plasma glucose and insulin in WT mice; assay type: in vivo, mouse; conditions: OXM 0.3 mpk i.p., exendin-4 0.02 mpk i.p.
GLP-1R−/− mice = test: IPGTT with plasma glucose and insulin in GLP-1R-/- mice; assay type: in vivo, mouse
mice = test: Gastric emptying in mice; assay type: in vivo, mouse; conditions: maximally efficacious dose for glucose lowering

## CSCC[C@H](NC(=O)[C@H](CC(C)C)NC(=O)[C@H](Cc1c[nH]c2ccccc12)NC(=O)[C@H](CCC(N)=O)NC(=O)[C@@H](NC(=O)[C@H](Cc1ccccc1)NC(=O)[C@H](CC(=O)O)NC(=O)[C@H](CCC(N)=O)NC(=O)[C@H](C)NC(=O)[C@H](CCCNC(=N)N)NC(=O)[C@H](CCCNC(=N)N)NC(=O)[C@H](CO)NC(=O)[C@H](CC(=O)O)NC(=O)[C@H](CC(C)C)NC(=O)[C@H](Cc1ccc(O)cc1)NC(=O)[C@H](CCCCN)NC(=O)[C@H](CO)NC(=O)[C@H](Cc1ccc(O)cc1)NC(=O)[C@H](CC(=O)O)NC(=O)[C@H](CO)NC(=O)[C@@H](NC(=O)[C@H](Cc1ccccc1)NC(=O)[C@@H](NC(=O)CNC(=O)[C@H](CC(=O)O)NC(=O)C(C)(C)NC(=O)[C@@H](N)Cc1c[nH]cn1)[C@@H](C)O)[C@@H](C)O)C(C)C)C(=O)N[C@@H](CC(N)=O)C(=O)N[C@H](C(=O)N[C@@H](CCCCN)C(N)=O)[C@@H](C)O [OXM131] (H-H[Aib]DGTFTSDYSKYLDSRRAQDFVQWLMNTK-NH2; N-terminus assumed)
hGLP-1R [1]
  EC50: 0.9 nM
hGLP-1R [2]
  EC50: 2.2 nM

## GLP-1: incretin hormone glucagon-like peptide 1, positive control
[3]; 10 nM peptide, 16 mmol/l glucose
  GSIS in WT islets: enhanced GSIS in WT islets with equal efficacy
[3]; 0.5 μM exendin-9
  potentiation of GSIS in WT islets in the presence of exendin-9: completely blocked
[4]
  potentiation of GSIS in GLP-1R−/− islets: completely unable to enhance GSIS
[5]; 16 mM glucose
  GSIS in GCG-R−/− islets: significantly increased GSIS
[5]; % insulin released relative to total islet insulin content
  fold-increase in fractional GSIS in GCG-R−/− islets: 2.5 fold

## H2αDGTFTSDYSKYLDSRRAC3DFVQWLmNTKRNRNNIA-CONH2 ([Desaminohistidyl][Aib]DGTFTSDYSKYLDSRRAC((mPEG)2 40 kDa)DFVQWL[Met(O)]NTKRNRNNIA-NH2) [OXM129]
hGLP-1R [1]
  EC50: 25 nM
hGLP-1R [2]
  EC50: 123 nM

## H2αQGTFTSDYSKYLDSRRAQDFVQWLmNTKRNRNNIAC3-CONH2 (XXQGTFTSDYSKYLDSRRAQDFVQWLXNTKRNRNNIAX; Aib2, D-Met, C-terminal amide, conjugated Cys; Synthetic peptide based on the human oxyntomodulin sequence) [OXM113]
hGLP-1R [1]
  EC50: 93.3 nM
hGLP-1R [2]
  EC50: 92.3 nM

## H2αQGTFTSDYSKYLDSRRAQDFVQWLmNTKRNRNNIAC4-CONH2 (XXQGTFTSDYSKYLDSRRAQDFVQWLXNTKRNRNNIAX; Aib2, D-Met, C-terminal amide, conjugated Cys; Synthetic peptide based on the human oxyntomodulin sequence) [OXM114]
hGLP-1R [1]
  EC50: 0.06 nM
hGLP-1R [2]
  EC50: 0.05 nM

## H2αQGTFTSDYSKYLDSRRAQDFVQWLmNTKRNRNNIAC5-CONH2 (XXQGTFTSDYSKYLDSRRAQDFVQWLXNTKRNRNNIAX; Aib2, D-Met, C-terminal amide, modified Cys; Synthetic peptide based on the human oxyntomodulin sequence) [OXM112]
hGLP-1R [1]
  EC50: 6.9 nM
hGLP-1R [2]
  EC50: 10.9 nM

## HGQGTFTSDYSKYLDSRRAQDFVQWLMNTKRNRNNIAA-COOH (Synthetic peptide based on the human oxyntomodulin sequence) [OXM1]
Male C57BL/6N mice
  overnight body weight gain in mice fed ad libitum: not efficacious

## HGQGTFTSDYSKYLDSRRAQDFVQWLMNTKRNRNNIAC2-COOH (HGQGTFTSDYSKYLDSRRAQDFVQWLMNTKRNRNNIAX; C2 conjugate at C-terminal cysteine; Synthetic peptide based on the human oxyntomodulin sequence) [OXM2]
[6]
  potency against GLP-1R in vitro relative to native OXM: significantly less potent than native OXM
[7]
  hGLP-1R potency after preincubation of the peptide with DP-IV: loss of potency
Male C57BL/6N mice
  overnight food intake and body weight gain in lean mice: reducing overnight food intake and body weight gain
  overnight body weight gain in mice fed ad libitum: effective in reducing overnight body weight gain

## HGQGTFTSDYSKYLDSRRAQDFVQWLMNTKRNRNNIAC3-COOH (HGQGTFTSDYSKYLDSRRAQDFVQWLMNTKRNRNNIAX; C3 conjugate at C-terminal cysteine; Synthesized oxyntomodulin polypeptide) [OXM3]
[6]
  potency against GLP-1R in vitro relative to native OXM: significantly less potent than native OXM
Male C57BL/6N mice
  overnight food intake and body weight gain in lean mice: reducing overnight food intake and body weight gain
  overnight body weight gain in mice fed ad libitum: effective in reducing overnight body weight gain

## HαDGTFTSDYSKYLDSRRAC3DFVQWLmNTKRNRNNIA-CONH2 [OXM125]
hGLP-1R [1]
  EC50: 3.9 nM
hGLP-1R [2]
  EC50: 42.5 nM

## HαDGTFTSDYSKYLDSRRAC8DFVQWLmNTK-CONH2 [OXM144]
[8]
  primary hydrolysis site: bond between Arg17 and Arg18
  secondary site of hydrolysis: bond between Arg18 and Ala19

## HαDGTFTSDYSKYLDSRRAQDFVQWLmNTKRNRNNIAC3-CONH2 (H[Aib]DGTFTSDYSKYLDSRRAQDFVQWL[Met(O)]NTKRNRNNIAC((mPEG)2 40 kDa)-NH2) [OXM117, (mPEG)240 kDa conjugate made with MPEG2-MAL-40K (NEKTAR)]
hGLP-1R [2]
  EC50: 41.3 nM

## HαDGTFTSDYSKYLDSRRAQDFVQWLmNTKRNRNNIAC3-CONH2 [OXM117, (mPEG)240 kDa conjugate made with MPEG2-MAL-40K (NEKTAR)]
glucagon-like activity
  glucagon-like activity in vitro: no glucagon-like activity

## HαDGTFTSDYSKYLDSRRAQDFVQWLmNTKRNRNNIAC4-CONH2 [OXM118]
hGLP-1R [1]
  EC50: 0.025 nM
hGLP-1R [2]
  EC50: < 0.5 nM

## HαDGTFTSDYSKYLDSRRAQDFVQWLmNTKRNRNNIAC8-CONH2 [OXM139]
[8]
  primary hydrolysis site: bond between Arg17 and Arg18
  secondary site of hydrolysis: bond between Arg18 and Ala19

## HαQGTFTSDYC3KYLDSRRAQDFVQWLmNTKRNRNNIA-CONH2 [OXM121]
hGLP-1R [1]
  EC50: > 125 nM
hGLP-1R [2]
  EC50: > 125 nM

## HαQGTFTSDYSC3YLDSRRAQDFVQWLmNTKRNRNNIA-CONH2 [OXM124]
hGLP-1R [1]
  EC50: > 100 nM
hGLP-1R [2]
  EC50: > 100 nM

## HαQGTFTSDYSKYLDSRRAC3DFVQWLMNTKRNRNNIA-CONH2 (H[Aib]QGTFTSDYSKYLDSRRA[C3]DFVQWLMNTKRNRNNIA-NH2) [OXM103]
hGLP-1R [1]
  EC50: 6.2 nM
hGLP-1R [2]
  EC50: 12.7 nM

## HαQGTFTSDYSKYLDSRRAQC3FVQWLMNTKRNRNNIA-CONH2 (HXQGTFTSDYSKYLDSRRAQXFVQWLMNTKRNRNNIA; Aib2, C-terminal amide, conjugated Cys; Synthetic peptide based on the human oxyntomodulin sequence) [OXM105]
hGLP-1R [1]
  EC50: 28.5 nM
hGLP-1R [2]
  EC50: 36.7 nM

## HαQGTFTSDYSKYLDSRRAQDC4VQWLmNTKRNRNNIA-CONH2 [OXM127]
hGLP-1R [1]
  EC50: > 500 nM
hGLP-1R [2]
  EC50: > 500 nM

## HαQGTFTSDYSKYLDSRRAQDFVC3WLmNTKRNRNNIA-CONH2 [OXM107]
hGLP-1R [1]
  EC50: 29.7 nM
hGLP-1R [2]
  EC50: 182 nM

## HαQGTFTSDYSKYLDSRRAQDFVQWLMC3TKRNRNNIA-CONH2 (HXQGTFTSDYSKYLDSRRAQDFVQWLMXTKRNRNNIA; Aib2, C-terminal amide, conjugated Cys; Synthetic peptide based on the human oxyntomodulin sequence) [OXM109]
hGLP-1R [1]
  EC50: 7.6 nM
hGLP-1R [2]
  EC50: 14.5 nM

## HαQGTFTSDYSKYLDSRRAQDFVQWLMNTK-CONH2 (HXQGTFTSDYSKYLDSRRAQDFVQWLMNTK; Aib2, C-terminal amide; Synthetic peptide based on the human oxyntomodulin sequence) [OXM130]
hGLP-1R [1]
  EC50: 5.8 nM
hGLP-1R [2]
  EC50: 8.7 nM

## HαQGTFTSDYSKYLDSRRAQDFVQWLmNTKRNRNNIAC3-CONH2 [OXM99]
hGLP-1R [1]
  EC50: 7.5 nM
hGLP-1R [2]
  EC50: 27.5 nM

## HαQGTFTSDYSKYLDSRRAQDFVQWLmNTKRNRNNIAC6-CONH2 [OXM100]
hGLP-1R [1]
  EC50: 22.5 nM
hGLP-1R [2]
  EC50: 184 nM

## exendin-4: GLP-1 mimetic, GLP-1 receptor agonist used as comparator
WT mice
  reduction of glucose AUC relative to the vehicle group: > 60%
GLP-1R−/− mice
  basal insulin levels: did not affect basal insulin levels
  insulin response to i.p. glucose challenge: nor did it improve the insulin response
GLP-1R−/− mice; same doses
  glucose excursion in IPGTT: did not affect glucose excursion
mice
  reduction of gastric emptying: 47%
